T1: bovine LPL (bovine, UniProt P11151 29-478, limits assumed)
T1 sequence (looked up): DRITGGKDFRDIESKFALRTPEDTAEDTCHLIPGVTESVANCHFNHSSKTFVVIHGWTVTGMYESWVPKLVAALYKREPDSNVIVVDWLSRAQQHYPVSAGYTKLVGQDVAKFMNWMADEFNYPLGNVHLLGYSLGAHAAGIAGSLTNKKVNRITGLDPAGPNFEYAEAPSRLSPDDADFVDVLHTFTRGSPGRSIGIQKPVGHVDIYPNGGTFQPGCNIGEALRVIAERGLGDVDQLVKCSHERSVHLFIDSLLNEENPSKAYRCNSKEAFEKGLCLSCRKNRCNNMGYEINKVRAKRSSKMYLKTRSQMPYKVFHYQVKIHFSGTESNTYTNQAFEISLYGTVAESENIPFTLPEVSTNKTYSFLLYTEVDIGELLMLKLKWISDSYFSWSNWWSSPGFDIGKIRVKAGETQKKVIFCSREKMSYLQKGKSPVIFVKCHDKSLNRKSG

T2: hANGPTL3(17-169)-mFc (human)
T2 construct: also called N-terminal coiled-coil domain of hANGPTL3 with a C-terminal mouse Fc fusion
T2 chain: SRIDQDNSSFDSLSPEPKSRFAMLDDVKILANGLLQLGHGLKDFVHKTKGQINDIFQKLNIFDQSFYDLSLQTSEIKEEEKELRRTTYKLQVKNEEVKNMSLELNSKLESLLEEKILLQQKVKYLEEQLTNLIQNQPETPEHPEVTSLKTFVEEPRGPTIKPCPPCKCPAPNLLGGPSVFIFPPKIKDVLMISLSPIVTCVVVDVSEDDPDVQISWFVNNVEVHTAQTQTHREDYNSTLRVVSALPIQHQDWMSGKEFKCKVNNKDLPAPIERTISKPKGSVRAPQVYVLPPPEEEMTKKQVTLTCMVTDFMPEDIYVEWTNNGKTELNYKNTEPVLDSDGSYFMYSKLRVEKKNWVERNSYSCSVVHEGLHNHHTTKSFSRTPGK

B1: MfANGPTL3(17-170)-mmH (other)
chain: SRIDQDNSSFDSVSPEPKSRFAMLDDVKILANGLLQLGHGLKDFVHKTKGQINDIFQKLNIFDQSFYDLSLQTSEIKEEEKELRRTTYKLQVKNEEVKNMSLELNSKLESLLEEKILLQQKVKYLEEQLTNLIQNQPATPEHPEVTSLKSFVEKEQKLISEEDLGGEQKLISEEDLHHHHHH
B2: hANGPTL3(17-460)-His (other)
chain: SRIDQDNSSFDSLSPEPKSRFAMLDDVKILANGLLQLGHGLKDFVHKTKGQINDIFQKLNIFDQSFYDLSLQTSEIKEEEKELRRTTYKLQVKNEEVKNMSLELNSKLESLLEEKILLQQKVKYLEEQLTNLIQNQPETPEHPEVTSLKTFVEKQDNSIKDLLQTVEDQYKQLNQQHSQIKEIENQLRRTSIQEPTEISLSSKPRAPRTTPFLQLNEIRNVKHDGIPAECTTIYNRGEHTSGMYAIRPSNSQVFHVYCDVISGSPWTLIQHRIDGSQNFNETWENYKYGFGRLDGEFWLGLEKIYSIVKQSNYVLRIELEDWKDNKHYIEYSFYLGNHETNYTLHLVAITGNVPNAIPENKDLVFSTWDHKAKGHFNCPEGYSGGWWWHDECGENNLNGKYNKPRAKSKPERRRGLSWKSQNGRLYSIKSTKMLIHPTDSESFEHHHHHHHHHH
B3: hANGPTL4(26-148)-mFc (Fc fusion)
chain: GPVQSKSPRFASWDEMNVLAHGLLQLGQGLREHAERTRSQLSALERRLSACGSACQGTEGSTDLPLAPESRVDPEVLHSLQTQLKAQNSRIQQLFHKVAQQQRHLEKQHLRIQHLQSQFGLLDEPRGPTIKPCPPCKCPAPNLLGGPSVFIFPPKIKDVLMISLSPIVTCVVVDVSEDDPDVQISWFVNNVEVHTAQTQTHREDYNSTLRVVSALPIQHQDWMSGKEFKCKVNNKDLPAPIERTISKPKGSVRAPQVYVLPPPEEEMTKKQVTLTCMVTDFMPEDIYVEWTNNGKTELNYKNTEPVLDSDGSYFMYSKLRVEKKNWVERNSYSCSVVHEGLHNHHTTKSFSRTPGK
B4: H4H1263S (antibody, IgG4, V domains shown)
VH: QVQLVQSGGGVVQPGRSLRLSCAASGFTFSTYGMHWVRQAPGKGLEWMAVISFDRGNKYYADSVKGRFTISRDNSKNTLYLQMNSLRAEDTAVYYCAKGGGSGTFYYYYGMDVWGQGTTVTVSS
VL: DIQMTQSPSSVSASVGNRVTITCRASQGISSWLAWYHQKPGKVPKVLIYAASSLQSGVPSRFSGSGSGTDFTLTISSLQPEDFATYYCQQANSFPFTFGPGTKVEIKR
B5: hANGPTL3(17-170)-His (other)
chain: SRIDQDNSSFDSLSPEPKSRFAMLDDVKILANGLLQLGHGLKDFVHKTKGQINDIFQKLNIFDQSFYDLSLQTSEIKEEEKELRRTTYKLQVKNEEVKNMSLELNSKLESLLEEKILLQQKVKYLEEQLTNLIQNQPETPEHPEVTSLKTFVEKHHHHHH
B6: mANGPTL3(17-455)-His (other)
chain: SRVDPDLSSFDSAPSEPKSRFAMLDDVKILANGLLQLGHGLKDFVHKTKGQINDIFQKLNIFDQSFYDLSLRTNEIKEEEKELRRTTSTLQVKNEEVKNMSVELNSKLESLLEEKTALQHKVRALEEQLTNLILSPAGAQEHPEVTSLKSFVEQQDNSIRELLQSVEEQYKQLSQQHMQIKEIEKQLRKTGIQEPSENSLSSKSRAPRTTPPLQLNETENTEQDDLPADCSAVYNRGEHTSGVYTIKPRNSQGFNVYCDTQSGSPWTLIQHRKDGSQDFNETWENYEKGFGRLDGEFWLGLEKIYAIVQQSNYILRLELQDWKDSKHYVEYSFHLGSHETNYTLHVAEIAGNIPGALPEHTDLMFSTWNHRAKGQLYCPESYSGGWWWNDICGENNLNGKYNKPRTKSRPERRRGIYWRPQSRKLYAIKSSKMMLQPTTHHHHHHHHHH
B7: H4H1248P (antibody, IgG4, V domains shown)
VH: QVQLVESGGGVVQPGRSLRLSCAASGFTFSSYGMHWVRQAPGKGLEWVAVISYDGSNKYYADSVKGRFTISRDNSKNTLYLQMNSLRAEDTAVYYCAKVGATTFYYYYGMDVWGQGTTVTVSS
VL: DIQMTQSPSSVSAFVGDRVTITCRASQGISSWLAWYQQKPGKAPKLLIYAASSLQSGVPSRFSGSGSGTDFTLTISSLQPEDFATYYCQKANSFPFTFGPGTKVEIK

The target of experiment [1] is T1, bovine LPL. The experiment is described as follows: cell-based or functional assay.
Experiment [2] has as its target B2. The experiment in a line: SPR Biacore, antigen captured, 37C, pH 7.4, HBS-EP. As to the method:
(§1) All kinetic binding experiments were performed at 25° C. or 37° C. on a BIACORE™ T200 label-free molecular interaction instrument (GE Healthcare) using a CM5 sensor chip. Briefly, an antigen capture surface was generated by covalently coupling either an anti-mouse IgG-specific antibody (anti-mFc; GE Healthcare; catalog #BR-1008-38) or an anti-pentahistidine-specific antibody (Qiagen; catalog #34660) to the surface of a CM5 sensor chip using a standard amine coupling method.

Experiment [3] deals with B6. The experiment in a line: SPR Biacore, antigen captured, 37C, pH 7.4, HBS-EP. The method, then:
as §1
In general terms: SPR reads the build-up and loss of mass on a sensor chip optically.

Experiment [4] concerns the target T2, hANGPTL3(17-169)-mFc. The experiment is described as follows: SPR Biacore, antigen captured, 25C, pH 7.4, HBS-EP. The method, then:
as §1

Experiment [5] has as its target B2. The experiment in a line: SPR Biacore, antigen captured, 25C, pH 7.4, HBS-EP. As to the method:
as §1

Turning to B1, the “EC50 (nM), inhibition of LPL activity” value in experiment [1] was 625 nM.

With B2, the “EC50 (nM), inhibition of LPL activity” value in experiment [1] turned out to be 50 nM.

Consider B3, for which the “EC50 (nM), inhibition of LPL activity” value in experiment [1] worked out at 0.2 nM.

B4: in experiment [2], the Kd (usually the free concentration of one partner at which half of the binding sites on the other are occupied at equilibrium, for simple one-to-one binding) worked out at 0.381 nM; the koff (as a rule, the rate constant with which the complex falls apart) amounted to 0.00181 s⁻¹; the kon (in general, a measure of how fast the partners come together) came out at 4.74e+06 M⁻¹ s⁻¹; the t1/2 was determined as 6 min. In addition, the binding result in experiment [3] is “no binding”. In experiment [4], this molecule returned a dissociation constant (Kd) of 6.23 nM, a koff of 0.00422 s⁻¹, a kon of 677000 M⁻¹ s⁻¹ and a t1/2 of 3 min. In experiment [5], this molecule came in with a dissociation constant Kd of 2.47 nM, a koff of 0.00126 s⁻¹, an association rate constant (kon) of 508000 M⁻¹ s⁻¹ and a t1/2 of 9 min.

On to B5, for which the “EC50 (nM), inhibition of LPL activity” value in experiment [1] was found to be 91 nM.

B6: the “EC50 (nM), inhibition of LPL activity” value in experiment [1] worked out at 33 nM.

In experiment [2], B7 returned a Kd of 0.986 nM, a koff of 0.00193 s⁻¹, a kon of 1.96e+06 M⁻¹ s⁻¹ and a t1/2 of 6 min. The binding result in experiment [3] is listed as “no binding”. For the same molecule, in experiment [4], the affinity, expressed as Kd, was 5.95 nM; the koff worked out at 0.00272 s⁻¹; the kon was determined as 457000 M⁻¹ s⁻¹; the t1/2 came out at 4 min. In experiment [5], this molecule displayed a Kd of 5.62 nM, a koff of 0.00247 s⁻¹, a kon of 440000 M⁻¹ s⁻¹ and a t1/2 of 5 min.
